This is an account of results in paper PMC10857811 (Chem, 2024).

This data set deals with the molecule itself. As to the kind of experiment: cross-linking.

Residue numbers refer to the chain shown, from its start. Numbers in names are those of the source.

B1: Pseudomonas fluorescens esterase variant p2 (T3C) (enzyme)
chain: SCFVAKDGTQIYFKDWGSGKPVLFSHGWLLDADMWEYQMEYLSSRGYRTIAFDRRGFGRSDQPWTGNDYDTFADDIAQLIEHLDLKEVTLVGFSMGGGDVARYIARHGSARVAGLVLLGAVTPLFGQKPDYPQGVPLDVFARFKTELLKDRAQFISDFNAPFYGINKGQVVSQGVQTQTLQIALLASLKATVDCVTAFAETDFRPDMAKIDVPTLVIHGDGDQIVPFETTGKVAAELIKGAELKVYKDAPHGFAVTHAQQLNEDLLAFLKR
In the case of B1, the “stoichiometry N” value is 3.

B2: Pseudomonas fluorescens esterase variant p4 (T3C and Q174C) (enzyme)
chain: B1 chain with Q173C
Take B2: the “stoichiometry N” value was found to be 3.

B3: Pseudomonas fluorescens esterase variant p3 (Q174C) (enzyme)
chain: B1 chain with C2T, Q173C
For the protein B3, the “stoichiometry N” value was 3.
